# “Also recorded” adds a separate entry of the source.
# T1: CXCR2 (Homo sapiens, UniProt P25025)
# T1 sequence (P25025 1-360): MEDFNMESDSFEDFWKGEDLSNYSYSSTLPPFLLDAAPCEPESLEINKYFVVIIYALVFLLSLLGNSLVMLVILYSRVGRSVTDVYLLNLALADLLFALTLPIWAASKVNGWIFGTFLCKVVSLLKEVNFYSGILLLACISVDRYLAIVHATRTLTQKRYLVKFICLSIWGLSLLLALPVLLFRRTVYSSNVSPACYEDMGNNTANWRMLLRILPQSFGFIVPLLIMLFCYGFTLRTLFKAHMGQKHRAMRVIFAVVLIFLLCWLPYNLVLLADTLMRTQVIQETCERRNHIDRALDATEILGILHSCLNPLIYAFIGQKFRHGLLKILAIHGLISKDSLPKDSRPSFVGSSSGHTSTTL
# T2: CCR7 (Homo sapiens, UniProt P32248)
# T2 sequence (P32248 25-378): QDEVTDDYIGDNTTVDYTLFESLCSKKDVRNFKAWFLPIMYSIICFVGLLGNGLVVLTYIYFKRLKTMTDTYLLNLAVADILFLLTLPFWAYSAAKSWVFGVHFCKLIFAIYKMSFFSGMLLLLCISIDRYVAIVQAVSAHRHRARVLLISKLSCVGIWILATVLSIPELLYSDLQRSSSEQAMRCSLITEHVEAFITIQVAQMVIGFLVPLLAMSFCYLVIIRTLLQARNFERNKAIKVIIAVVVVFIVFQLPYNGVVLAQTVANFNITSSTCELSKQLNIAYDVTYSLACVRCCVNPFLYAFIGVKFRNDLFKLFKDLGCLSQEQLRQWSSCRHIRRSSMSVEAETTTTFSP
# B1: 238D2: Nanobody (VHH) raised against human CXCR4, SEQ ID NO: 238 (protein)
# VHH: EVQLVESGGGLVQTGGSLRLSCAASGFTFSSYAMSWVRQAPGKGLEWVSGIKSSGDSTRYAGSVKGRFTISRDNAKNMLYLQMYSLKPEDTAVYYCAKSRVSRTGLYTYDNRGQGTQVTVSS
# modifications: Nanobody, Nanobody constructs or fragments thereof
# B2: 238D4: Nanobody (VHH) raised against human CXCR4, SEQ ID NO: 239 (protein)
# VHH: EVQLMESGGGLVQAGGSLRLSCAASGRTFNNYAMGWFRRAPGKEREFVAAITRSGVRSGVSAIYGDSVKDRFTISRDNAKNTLYLQMNSLKPEDTAVYTCAASAIGSGALRRFEYDYSGQGTQVTVSS
# modifications: Nanobody, Nanobody constructs or fragments thereof
# Tests used:
# CXCR2 = biological target: T1, CXCR2; experiment: CRE/β-galactosidase reporter gene selectivity screen, CXCR2; type: cell-based; conditions: up to 2.5, forskolin 3 μM, agonist at 50-80% Emax
# Description: (§1) Data are shown as means±S.E.M. (n=2-3).
# (§2) HEK293T cells were maintained at 37° C. in a humidified 5% CO2, 95% air atmosphere in Dulbecco's modified Eagle's medium (DMEM) containing 2 mM L-glutamine, 50 IU/ml penicillin, 50 μg/ml streptomycin, and 10% (v/v) fetal calf serum. Jurkat cells were cultured in a humidified 5% CO2, 95% air atmosphere in a 1:1 mixture of Dulbecco's modified Eagle's medium (DMEM) and Ham's F12 medium containing 2 mM L-glutamine, 50 IU/ml penicillin, 50 μg/ml streptomycin, and 10% (v/v) fetal calf serum. […] [^125 I]-Labelling— Radiolabeling of Nanobodies with ^125I was performed using the Iodo-gen method (Pierce, Rockford, Ill.) according to the manufacturer's protocol. ^125I-labeled Nanobodies was separated from free iodine (>99%) using a Sephadex G-25 gel filtration column (Amersham Biosciences, Piscataway, N.J.). […] Competition Binding Assays— Membranes from HEK293T cells transiently expressing CXCR3 or CXCR4 were prepared 48 h after transfection as follows. Cells were washed and scraped from the cell culture dishes with ice-cold PBS containing 1 mm EDTA. The scraped cells were pelleted at 1500×g for 10 min at 4° C. […] The total protein was determined using a Bradford assay (Bio-Rad). […] Plates were counted by liquid scintillation. […] The accumulated inositol phosphates were isolated by anion exchange chromatography and counted by liquid scintillation. […]
# [1] = system: Jurkat cells endogenously expressing CXCR4; experiment: Chemotaxis assay (ChemoTx plates) with Jurkat cells towards CXCL12; type: cell-based
# Description: HEK293T cells were maintained at 37° C. in a humidified 5% CO2, 95% air atmosphere in Dulbecco's modified Eagle's medium (DMEM) containing 2 mM L-glutamine, 50 IU/ml penicillin, 50 μg/ml streptomycin, and 10% (v/v) fetal calf serum. Jurkat cells were cultured in a humidified 5% CO2, 95% air atmosphere in a 1:1 mixture of Dulbecco's modified Eagle's medium (DMEM) and Ham's F12 medium containing 2 mM L-glutamine, 50 IU/ml penicillin, 50 μg/ml streptomycin, and 10% (v/v) fetal calf serum. […] [^125 I]-Labelling— Radiolabeling of Nanobodies with ^125I was performed using the Iodo-gen method (Pierce, Rockford, Ill.) according to the manufacturer's protocol. ^125I-labeled Nanobodies was separated from free iodine (>99%) using a Sephadex G-25 gel filtration column (Amersham Biosciences, Piscataway, N.J.). […] Competition Binding Assays— Membranes from HEK293T cells transiently expressing CXCR3 or CXCR4 were prepared 48 h after transfection as follows. Cells were washed and scraped from the cell culture dishes with ice-cold PBS containing 1 mm EDTA. The scraped cells were pelleted at 1500×g for 10 min at 4° C. The pellet was washed and then resuspended in ice-cold membrane buffer (15 mM Tris, pH 7.5, 1 mM EGTA, 0.3 mM EDTA, and 2 mM MgCl2). The cell suspension was homogenized by 10 strokes at 1200 rpm using a Teflon-glass homogenizer and rotor and further subjected to three freeze-thaw cycles using liquid nitrogen. Membranes were separated by centrifugation at 40,000 g for 25 min at 4° C. The membrane pellet was washed and resuspended in ice-cold Tris-sucrose buffer (20 mM Tris, pH 7.4, and 250 mM sucrose) and frozen in liquid nitrogen. The total protein was determined using a Bradford assay (Bio-Rad). Periplasmas (1:10) or ligands were pre-incubated with membranes in binding buffer (50 mM HEPES (pH 7.4), 1 mM CaCl2, 5 mM MgCl2, 100 mM NaCl, 0.5% bovine serum albumin) supplemented with 0.5% BSA for 1 h at 22° C. before the addition of [^125I]-CXCL12 (40 pM) or [^125I]-238D2 (3 nM) or [^125I]-238D4 (3 nM) for additional 2 h at 22° C. […] Membranes were then harvested over polyethylenimine (0.5%)-treated Whatman GF/C filter plates and washed three times with ice cold binding buffer containing 500 mM NaCl. Plates were counted by liquid scintillation. Inositol Phosphate Accumulation Assay— 24 hours post transfection with pcDNA3.1-CXCR4 and pcDNA1-HA-mG {alpha} qi5 (see Verzijl et al, 2008 supra), 250.000 cells were seeded into 24-wells plates and labelled overnight using inositol-free minimal essential medium supplemented with 1 μCi myo-[2-^3H]-inositol. The next day, the cells were washed once to remove not incorporated myo-[2-^3H]-inositol. […] In agonist experiments, the cells were directly stimulated with test compounds and LiCl (10 mM) in assay buffer for 2 h at 37° C. The stimulation was stopped by aspirating the stimulation medium and adding ice-cold 10 mM formic acid. The accumulated inositol phosphates were isolated by anion exchange chromatography and counted by liquid scintillation. CRE Reporter Gene Assay— HEK239T cells were transfected with pCRE/β-galactosidase (Chen W, Shields T S, Stork P J S, Cone R D (1995) Anal Biochem 226:349-354) and plasmids (pcDEF3 or pcDNA3.1) encoding the indicated receptors. 40,000 transfected cells per well were seeded into 96 well plates and grown in DMEM supplemented with 10% fetal calf serum. The medium was replaced 32 h after transfection by serum-free DMEM supplemented with 0.5% bovine serum albumin and ligands as indicated. Following 16 h of ligand incubation, the medium was removed, the cells were lysed in 100 μl of assay buffer (100 mM sodium phosphate buffer at pH 8.0, 4 mM 2-nitrophenol-β-D-pyranoside, 0.5% Triton X-100, 2 mM MgSO4, 0.1 mM MnCl2, and 40 mM β-mercaptoethanol) and incubated at room temperature. […]
# CCR5 = CCR5 (Homo sapiens, UniProt P51681); experiment: CRE/β-galactosidase reporter gene selectivity screen, CCR5; type: cell-based; conditions: up to 2.5, forskolin 3 μM, agonist at 50-80% Emax
# Description: as §1, §2
# CCR7 = biological target: T2, CCR7; experiment: CRE/β-galactosidase reporter gene selectivity screen, CCR7; type: cell-based; conditions: up to 2.5, forskolin 3 μM, agonist at 50-80% Emax
# CXCR4 (N119A) = CXCR4 (N119A) (Homo sapiens, UniProt P61073, N119A); experiment: [125I]-CXCL12 competition binding on the constitutively active CXCR4 mutant N119A; conditions: for binding to / displacement of [125I]-CXCL12 from CXCR4 (N119A): highest test concentration 2 μM, n=3
# Description: HEK293T cells were maintained at 37° C. in a humidified 5% CO2, 95% air atmosphere in Dulbecco's modified Eagle's medium (DMEM) containing 2 mM L-glutamine, 50 IU/ml penicillin, 50 μg/ml streptomycin, and 10% (v/v) fetal calf serum. Jurkat cells were cultured in a humidified 5% CO2, 95% air atmosphere in a 1:1 mixture of Dulbecco's modified Eagle's medium (DMEM) and Ham's F12 medium containing 2 mM L-glutamine, 50 IU/ml penicillin, 50 μg/ml streptomycin, and 10% (v/v) fetal calf serum. […] [^125 I]-Labelling— Radiolabeling of Nanobodies with ^125I was performed using the Iodo-gen method (Pierce, Rockford, Ill.) according to the manufacturer's protocol. ^125I-labeled Nanobodies was separated from free iodine (>99%) using a Sephadex G-25 gel filtration column (Amersham Biosciences, Piscataway, N.J.). […] Competition Binding Assays— Membranes from HEK293T cells transiently expressing CXCR3 or CXCR4 were prepared 48 h after transfection as follows. Cells were washed and scraped from the cell culture dishes with ice-cold PBS containing 1 mm EDTA. The scraped cells were pelleted at 1500×g for 10 min at 4° C. The pellet was washed and then resuspended in ice-cold membrane buffer (15 mM Tris, pH 7.5, 1 mM EGTA, 0.3 mM EDTA, and 2 mM MgCl2). The cell suspension was homogenized by 10 strokes at 1200 rpm using a Teflon-glass homogenizer and rotor and further subjected to three freeze-thaw cycles using liquid nitrogen. Membranes were separated by centrifugation at 40,000 g for 25 min at 4° C. The membrane pellet was washed and resuspended in ice-cold Tris-sucrose buffer (20 mM Tris, pH 7.4, and 250 mM sucrose) and frozen in liquid nitrogen. The total protein was determined using a Bradford assay (Bio-Rad). Periplasmas (1:10) or ligands were pre-incubated with membranes in binding buffer (50 mM HEPES (pH 7.4), 1 mM CaCl2, 5 mM MgCl2, 100 mM NaCl, 0.5% bovine serum albumin) supplemented with 0.5% BSA for 1 h at 22° C. before the addition of [^125I]-CXCL12 (40 pM) or [^125I]-238D2 (3 nM) or [^125I]-238D4 (3 nM) for additional 2 h at 22° C. […] Membranes were then harvested over polyethylenimine (0.5%)-treated Whatman GF/C filter plates and washed three times with ice cold binding buffer containing 500 mM NaCl. Plates were counted by liquid scintillation. Inositol Phosphate Accumulation Assay— 24 hours post transfection with pcDNA3.1-CXCR4 and pcDNA1-HA-mG {alpha} qi5 (see Verzijl et al, 2008 supra), 250.000 cells were seeded into 24-wells plates and labelled overnight using inositol-free minimal essential medium supplemented with 1 μCi myo-[2-^3H]-inositol. The next day, the cells were washed once to remove not incorporated myo-[2-^3H]-inositol. […] The accumulated inositol phosphates were isolated by anion exchange chromatography and counted by liquid scintillation. […]
# [2] = Jurkat/0.3 nM CXCL12, monovalent Nanobodies, mean ± S.E.M.
# CXCR4 (N119A), sequence (P61073 whole entry N119A): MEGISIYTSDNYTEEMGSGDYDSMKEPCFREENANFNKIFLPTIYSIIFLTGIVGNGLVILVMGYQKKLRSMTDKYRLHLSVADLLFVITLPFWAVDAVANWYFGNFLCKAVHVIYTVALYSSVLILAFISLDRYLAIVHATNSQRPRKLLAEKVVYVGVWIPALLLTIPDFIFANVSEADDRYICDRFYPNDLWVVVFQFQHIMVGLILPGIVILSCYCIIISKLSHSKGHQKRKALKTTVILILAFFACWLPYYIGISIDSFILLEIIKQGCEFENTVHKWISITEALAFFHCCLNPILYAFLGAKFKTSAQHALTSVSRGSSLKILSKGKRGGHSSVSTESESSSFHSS
# CCR5, sequence (P51681 whole entry): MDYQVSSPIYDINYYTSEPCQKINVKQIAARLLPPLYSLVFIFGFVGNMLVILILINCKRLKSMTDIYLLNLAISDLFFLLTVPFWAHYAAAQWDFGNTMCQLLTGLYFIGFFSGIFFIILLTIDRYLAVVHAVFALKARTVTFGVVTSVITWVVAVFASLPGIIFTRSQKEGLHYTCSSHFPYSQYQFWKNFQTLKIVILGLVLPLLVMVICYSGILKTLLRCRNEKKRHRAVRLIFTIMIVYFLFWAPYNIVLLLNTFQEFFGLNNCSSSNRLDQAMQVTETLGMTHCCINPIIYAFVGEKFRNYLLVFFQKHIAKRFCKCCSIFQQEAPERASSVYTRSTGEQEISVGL
Molecule,effect on agonist-induced response at CXCR2 (CXCR2),"Imax (%), Chemotaxis [1, 2] [%]","pKi or pIC50, Chemotaxis [1, 2]",effect on agonist-induced response at CCR5 (CCR5),effect on agonist-induced response at CCR7 (CCR7),binding affinity at CXCR4 (N119A) compared to the wild type receptor (CXCR4 (N119A)),binding to / displacement of [125I]-CXCL12 from CXCR4 (N119A) (CXCR4 (N119A)),inhibition of migration of Jurkat cells towards CXCL12 ([1]; 300 pM CXCL12),induction of migration of Jurkat cells (agonism) ([1]; test compound in lower compartment)
B1,do not act as agonists or antagonists; also recorded: do not alter,106 ± 2,8.33 ± 0.16,do not act as agonists or antagonists; also recorded: do not alter,do not act as agonists or antagonists; also recorded: do not alter,somewhat less,displace; also recorded: able to bind,,
B2,do not act as agonists or antagonists; also recorded: do not alter,101 ± 4,,do not act as agonists or antagonists; also recorded: do not alter,do not act as agonists or antagonists; also recorded: do not alter,somewhat less,displace; also recorded: able to bind,concentration-dependently inhibited,unable to induce any significant migration
